Results published in the nanobody polyreactivity screen of Harvey et al. (2022).

Test: yeast display, Sf9 membrane polyspecificity reagent, FACS + sequencing; frameworks hold sequencing errors
Outline: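 A nanobody's polyreactivity label depends on the gate it was sorted from. Yeast display cells were stained with 10% biotinylated, detergent-solubilized Sf9 membrane reagent for 1 hour at 4 °C, enriched on streptavidin microbeads and sorted by FACS. The low and high (top ~1%) gates were set on anti-HA fluorescence for expression and streptavidin fluorescence for reagent binding.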

Sequence | polyreactivity (PSR sort gate)
QVQLVESGGGLVQAGGSLRLSCAASGLIFSNYAMGWYRQAPGKERELVAAITRTATTKYADSVKGRFTISRDNAKNTVYLQMNSLKPEDSAVYYCAARSYHDRYNSWTDRYGFWGQGTQVTVSS | high polyreactivity
QVQLVESGGGLVQAGGSLRLSCAASGLIFSPYAMGWYRQAPGKERELVAAISWRGGRTSYADSVKGRFTISRDNAKNTVYLQMNSLKPEDTAVYYCATRNSSKRRGYYYWGQGTQVTVSS | high polyreactivity
QVQLVESGGGLVQAGGSLRLSCAASGLIFSRNAMGWYRQAPGKERELVAAISGGGGSTYYADSVKGRFTISRDNAKNNVYLQMHSLKQEATAVYDCAAKGYWWRTPWIATYDYWGQGTQVTVSS | high polyreactivity
QVQLVESGGGLVQAGGSLRLSCAASGLIFSRYAMGWYRQAPGKERELVAAISTRGGSTYYADSVKGRFTISRDTAKNTVYLQMNSLKPEDTAVYYCNADIYGTFRVGQGYDYWGQGTQVTVSS | high polyreactivity
QVQLVESGGGLVQAGGSLRLSCAASGLIFSRYAMGWYRQAPGKERELVAVISWSGGRTYYSDSVKGRFTISRDNAKNTVYLQMNSLQPEDTAVYYCAADYKSGGSRYDYWGQGTQVTVSS | high polyreactivity
QVQLVESGGGLVQAGGSLRLSCAASGLIFSSNAMGWYRQAPGKERELVAAISRRGGNTYYADSVKGRFTISRDNAKNTVYLQMNSLKPEDTAVYYCAARRYYVASIYRYDSWGQGTQVTVSS | high polyreactivity
QVQLVESGGGLVQAGGSLRLSCAASGLIFSSNAMGWYRQAPGKERELVATISWSGGSTYYADSVKGRFTISRDNAKNTVYLQMNSLKPEDTAVYYCAAVTHPAWAVEYDYWGQGTQVTVSS | high polyreactivity
QVQLVESGGGLVQAGGSLRLSCAASGLIFSVNAMGWYRQAPGKERELVAAITWSSGRTYYADSVKGRFTISRDNAKNSVYLQMISLKPEDTAVYYCAGVSYWYGLMYYWGQGTQVTVSS | high polyreactivity
QVQLVESGGGLVQAGGSLRLSCAASGLIFSYNAMGWYRQAPGTEMELVASITGGGSTYYADSVKGRFTISRDNAKNTVYFQIKSQKPEDTAVYYCAVVRLWYAQPAAGFRAGGGYWGQGTQVTLSS | low polyreactivity
QVQLVESGGGLVQAGGSLRLSCAASGLIFSYYAMGWYRQAPGKEMELVAAITSDDSTYYADSVKGRFTISRDNAKNTVYLQINSLKPEDTAVYYCAARYTMYDTGESSRTYTGFNYWGQGTQVTVSS | low polyreactivity
QVQLVESGGGLVQAGGSLRLSCAASGLIFSYYAMGWYRQAPGKERELVAAISWSGGSTYYADSVKGRFTISRDNAKNTVYLQMNSLKPEDTAVYYCAADRISADYDYWGQGTQVTVSS | low polyreactivity
QVQLVESGGGLVQAGGSLRLSCAASGLIFTTNAMGWYRQAPGKERELVAAISTSTGRTYYADSVKGRFTISRDNAKNTVYLQMNSLKPEDTAVYYCARGSRYVGTQRHYYKYDYWGQGTQVTVSS | high polyreactivity
QVQLVESGGGLVQAGGSLRLSCAASGLIFVANTMGWYRQATGKERELVAAITSDGGSTSYADSVKGRFTISRDNAKNTVYLQMNSLKPEDTAVYHCAAEYGGSSAKYGYWGQGTQVTVSS | low polyreactivity
QVQLVESGGGLVQAGGSLRLSCAASGLIFVGYAMGWYRQAPGKERELVAAITSGGSTKYADSVKGRFTISRDNAKNTVYLQMNSLKPEDTAVYYCAASGWRNWWSARNYYWGQGTQVTVSS | low polyreactivity
QVQLVESGGGLVQAGGSLRLSCAASGLIFVGYVMGWYRQAPGKERELVAAITSSSGSTYYADSVKGRFTISRDNAKNTVYLQKNSLKPEDTAVYYCAAEWGYYWYYDSEYWGQGTQVTVSS | high polyreactivity
QVQLVESGGGLVQAGGSLRLSCAASGLIFVINAMGWYRQAPGKERELVATISSGVSTNYADSVKGRFTISRDNAKNTVYLQMNSLKPEDTAVYYCKKGQTVSRGYRLYERYDYWGQGTQVTVSS | low polyreactivity
QVQLVESGGGLVQAGGSLRLSCAASGLIFWGYTMGWYRQAPGKEREFVAAISKSAGSTFYADSVKGRFTISRDNAKNTVYLQMNSLKPEDTAVYYCATGGFPGARVAYDYYYWGQGTQVTVSS | low polyreactivity
QVQLVESGGGLVQAGGSLRLSCAASGLIFWGYTMGWYRQAPGKERELVAAISRRGGRTYYADSVKGRFTISRDNAKNTVYLQMNSLKPEDTAVYYCNADITSSGPKSDYWGQGTQVTVSS | high polyreactivity
QVQLVESGGGLVQAGGSLRLSCAASGLIFWLNAMGWYRQAPGKERELVAAISWTDGTTYYADSVKGRFTISRDNAKNTVYLQMNSLIPEDTAVYYCAAEQVTIEDGVYFDFNSWGQGTQVTVSS | low polyreactivity
QVQLVESGGGLVQAGGSLRLSCAASGLIFWVYTMGWYRQAPGKERELVASISWNGGSTYYADSVKGRFTISRDNAKNTVYLQMNSLKPEDTAVYYCAAGARYVQRDYWGQGTQVTVSS | low polyreactivity
QVQLVESGGGLVQAGGSLRLSCAASGLIFWYYTMGWYRPAPGKERELVAAITIGGSTYYADSVKGRFTISRDNAKNTVYLQMNSLKPEDTAVYYCNTRRGRSQGGRYEYDYWGQGTQVTVSS | low polyreactivity
QVQLVESGGGLVQAGGSLRLSCAASGLIFYDNAMGWYRQAPGKERELVAAISWGGGTTYYADSVKGRFTISRDNAKNTVYLQMISLKPDDTAVYYCAAEEALFYDFYYVLLDYWGQGTQVTVSS | high polyreactivity

Sequence | polyreactivity (PSR sort gate)
QVQLVESGGGLVQAGGSLRLSCAASGLIFYFNAMGWYRQAPGKERELVASITRTGSTNYADSVKGRFTISRDNAKNTVYLQMNSLKAEDTAVYYCAAYGPVYPHEYDYWGHGTQVTVSS | low polyreactivity
QVQLVESGGGLVQAGGSLRLSCAASGLIFYKNAMAWYRQAPGKERELVAAIDWSSGSTYYADSVKGRFTISRDNAKNTVYLQMNSLIPEDTAVYYCAAEYVHHASGDFRTLYYYWGQGTQVTVSS | low polyreactivity
QVQLVESGGGLVQAGGSLRLSCAASGLIFYPYAMGWYRQAPGKERELVAAITSDGSTYYADSVKGRFTISRDNAKNTVYLQMNSLKPEDTAVYYCAVVVAYFDDDYGLSWFYEYDYWGQGTQVTVSS | low polyreactivity
QVQLVESGGGLVQAGGSLRLSCAASGLIFYRNAMGWYRQAPGKERELVAAISVSGGSTYYADSVKGRFTISRDNAKNTVYLQMNSLKPEDTAVYYCAAKTWRSRGLEMDYWGQGTQVTVSS | high polyreactivity
QVQLVESGGGLVQAGGSLRLSCAASGLIFYRYAMGWYRQAPAKERELVADITRDSGSTSYADSVKGRFTISRDYAKNTVYLQMNSLKPEDTAVYYCNAGWVYTASGRQYYITYDYWGQGTQVTVSS | high polyreactivity
QVQLVESGGGLVQAGGSLRLSCAASGLIFYRYAMGWYRQAPGKERELVAAISSGGSTYYADSVKGRFTISRDNAKNTVYLQMNSLKPEDTAVYYCNAKVYGRRYDYWGQGTQVTVSS | high polyreactivity
QVQLVESGGGLVQAGGSLRLSCAASGLIFYSNAMGWYRQAPGKERELVAAISFNSGSTYYADSVKGRFTISRDNAKNTVYLQMNSLKPEDTAVYYCAKKRRFVVLSVQGDYWGQGTQVTVSS | low polyreactivity
QVQLVESGGGLVQAGGSLRLSCAASGLIFYSYTMGWYRQAPGKERELVAVISRSGTSTYYADSVKGRFTISRDNAKNTVYLQMNSLKPEDTAVYYCAALTRSGPYAYEYWGQGTQVTVSS | high polyreactivity
QVQLVESGGGLVQAGGSLRLSCAASGLIFYWNAMGWYRQAPGKERELVAGITSGGDTNYADSVKGRFTISRDNAKNTVYLQMNSLKPEDTAVYDCAAEGFRGYGYWGQGTQVTVSS | low polyreactivity
QVQLVESGGGLVQAGGSLRLSCAASGLIFYWYAMGWYRQAPGKEREFVAAISYGGTTTSYADSVKGRFTISRDNAKNTVYLQMNSLKPEDTAVYYCAAEESTSSWSINDYWGQGTQVTVSS | low polyreactivity
QVQLVESGGGLVQAGGSLRLSCAASGLIFYYYAMGWYRQAPGKERELVAAITRGGRTYYADSVKGRFTISRDNAKNTVYLQMNSLKPEDTAVYYCNTVSVKSGLDYWGQGTQVTVSS | high polyreactivity
QVQLVESGGGLVQAGGSLRLSCAASGLIFYYYVMGWYRQAPGKERELVARISTSGGSTYYADSVKGRFTISRDNAKNTVYLQMNSLKPEDTAVYYCAADHYGGRDYWGQGTQVTVSS | low polyreactivity
QVQLVESGGGLVQAGGSLRLSCAASGLIIPRYAMGWYRQAPGKERELVAAITYTGGSTYYADSVKGRFTISRDNAKNTVYLQMNSLKPEDTSVYYCAVVVGYTDSPYSYDYWGQGTQVTVSS | low polyreactivity
QVQLVESGGGLVQAGGSLRLSCAASGLIIVYNAIGWYRHAPGKERELVAGITSGGSTNYADSEKGRFTISRDNAKKTVYLQMNSLKPEDTAVYYCNAPVTGAGTYPPYDSWGQGTQVTVSS | high polyreactivity
QVQLVESGGGLVQAGGSLRLSCAASGLILGRYAMGWYRQAPGKERELVAAITRGGRTYYADSVKGRFTISRDNAKNTVYLQMNSLKPEDPAVYYCAATFGYTRNDYDYWGHGTQVTVSS | high polyreactivity
QVQLVESGGGLVQAGGSLRLSCAASGLILGVYSMGWYRQAPGKEREFVASINYGGGSTYYADSGKGRFTISRDNAKNTVYLQMNSLKPEDTAVYYCNARSRWGGTRLYSYDYWGQGTQVTVSS | low polyreactivity
QVQLVESGGGLVQAGGSLRLSCAASGLILGYYAMGWYRQAPGKERELVAAITSSGTTTYYADSVKGRFTISRDNAKNTVYLQMNSLKPEDTAVYYWAALYIGKKRFNYWGQGTQVNVSS | high polyreactivity
QVQLVESGGGLVQAGGSLRLSCAASGLILQYYVMGWYRQAPGKERELVAAITRSGGGTYYADSVKGRFTISRDNAKNTVYLQMNSLKPEDTAVYYCADRQPYRFHGSEYDYWGQGTQVNVSS | high polyreactivity
QVQLVESGGGLVQAGGSLRLSCAASGLILRKYAMGWYRQAPGKEREFVAAITQTGSRSYYADSVKGRFTISRDNAKNTVYLQMNSLKPEDTAVYYCAARGTRAYRTYDYWGQGTQVTVSS | high polyreactivity
QVQLVESGGGLVQAGGSLRLSCAASGLILTRYAMGWYRQAPGKERELVAAITKNGGSTYYADSVKGRFTISRDNAKNTVYLLMNSLKPEDTAVYYCNVCPRRVDRSRAASSDYDYWGQGSQVTVSS | high polyreactivity
QVQLVESGGGLVQAGGSLRLSCAASGLILTWNAMGWYRQAPGKERELVAAISRSDGITYYADSVKGRFTISRDTAKNTVYIQMNSLKPEDTAVYYCAKDGVPKGRGGAYYEYDYWGQGTQVTVSS | low polyreactivity
